These results are taken from patent US9745607B2, “Methods of producing 6-carbon chemicals using 2,6-diaminopimelate as precursor to 2-aminopimelate” (INVISTA North America S.á r.l., priority 2014, dated 2017).

Format in all cases: biochemical
Data set [1] can be described thus: ω-transaminase enzyme activity assay, reverse direction (6-aminohexanoate to adipate semialdehyde). Particulars: cell free extract, 10 mM 6-aminohexanoate, 10 mM pyruvate, pH 7.5, 25° C., 24 h, RP-HPLC, against the empty vector control. The procedure:
(§1) A nucleotide sequence encoding a His-tag was added to the genes from Chromobacterium violaceum, Pseudomonas aeruginosa, Pseudomonas syringae, Rhodobacter sphaeroides, and Vibrio Fluvialis encoding the ω-transaminases of SEQ ID NOs: 8, 9, 10, 11 and 13, respectively (see FIG. 20E and FIG. 20F) such that N-terminal HIS tagged ω-transaminases could be produced. Each of the resulting modified genes was cloned into a pET21a expression vector under control of the T7 promoter and each expression vector was transformed into a BL21[DE3] E. coli host. The resulting recombinant E. coli strains were cultivated at 37° C. in a 250 mL shake flask culture containing 50 mL LB media and antibiotic selection pressure, with shaking at 230 rpm. Each culture was induced overnight at 16° C. using 1 mM IPTG.
(§2) The pellet from each induced shake flask culture was harvested via centrifugation. Each pellet was resuspended and lysed via sonication. The cell debris was separated from the supernatant via centrifugation and the cell free extract was used immediately in enzyme activity assays.
Enzyme activity assays in the reverse direction (i.e., 6-aminohexanoate to adipate semialdehyde) were performed in a buffer composed of a final concentration of 50 mM HEPES buffer (pH=7.5), 10 mM 6-aminohexanoate, 10 mM pyruvate and 100 μM pyridoxyl 5′ phosphate. Each enzyme activity assay reaction was initiated by adding cell free extract of the ω-transaminase gene product or the empty vector control to the assay buffer containing the 6-aminohexanoate and incubated at 25° C. for 24 h, with shaking at 250 rpm. The formation of L-alanine from pyruvate was quantified via RP-HPLC.

Data set [2] is described as follows: ω-transaminase enzyme activity assay, forward direction (adipate semialdehyde to 6-aminohexanoate). Particulars: cell free extract, 10 mM adipate semialdehyde, 10 mM L-alanine, pH 7.5, 25° C., 4 h, RP-HPLC, against the empty vector control. The procedure:
as §1, §2
Enzyme activity in the forward direction (i.e., adipate semialdehyde to 6-aminohexanoate) was confirmed for the transaminases of SEQ ID NO 8, SEQ ID NO 9, SEQ ID NO 10, SEQ ID NO 11 and SEQ ID NO 13. Enzyme activity assays were performed in a buffer composed of a final concentration of 50 mM HEPES buffer (pH=7.5), 10 mM adipate semialdehyde, 10 mM L-alanine and 100 μM pyridoxyl 5′ phosphate. Each enzyme activity assay reaction was initiated by adding a cell free extract of the ω-transaminase gene product or the empty vector control to the assay buffer containing the adipate semialdehyde and incubated at 25° C. for 4 h, with shaking at 250 rpm. The formation of pyruvate was quantified via RP-HPLC.

Data set [3] is described as follows: carboxylate reductase enzyme activity assay (adipate semialdehyde to hexanedial). Particulars: purified enzyme enhanced by the gene product of sfp, 2 mM adipate semialdehyde, pH 7.5, room temperature, 20 min, against the empty vector control. The procedure: The N-terminal His-tagged carboxylate reductase of SEQ ID NO 7 (see Example 2 and FIG. 20E) was assayed using adipate semialdehyde as substrate. The enzyme activity assay was performed in triplicate in a buffer composed of a final concentration of 50 mM HEPES buffer (pH=7.5), 2 mM adipate semialdehyde, 10 mM MgCl2, 1 mM ATP and 1 mM NADPH. The enzyme activity assay reaction was initiated by adding purified carboxylate reductase and phosphopantetheine transferase or the empty vector control to the assay buffer containing the adipate semialdehyde and then incubated at room temperature for 20 min. The consumption of NADPH was monitored by absorbance at 340 nm.

Consider “SEQ ID NO 11: Rhodobacter sphaeroides ω-transaminase, N-terminal HIS tagged”, for which, in data set [1], the “ω-transaminase activity: acceptance of 6-aminohexanoate as substrate (formation of L-alanine from pyruvate)” value is reported as “accepted 6-aminohexanote as substrate”. Moreover, the “ω-transaminase activity: acceptance of adipate semialdehyde as substrate (formation of pyruvate from L-alanine)” value in data set [2] is on record as “accepted adipate semialdehyde as substrate”.

B1: SEQ ID NO 8: Chromobacterium violaceum ω-transaminase, N-terminal HIS tagged (protein, listed as Chromobacterium violaceum)
chain: MQKQRTTSQWRELDAAHHLHPFTDTASLNQAGARVMTRGEGVYLWDSEGNKIIDGMAGLWCVNVGYGRKDFAEAARRQMEELPFYNTFFKTTHPAVVELSSLLAEVTPAGFDRVFYTNSGSESVDTMIRMVRRYWDVQGKPEKKTLIGRWNGYHGSTIGGASLGGMKYMHEQGDLPIPGMAHIEQPWWYKHGKDMTPDEFGVVAARWLEEKILEIGADKVAAFVGEPIQGAGGVIVPPATYWPEIERICRKYDVLLVADEVICGFGRTGEWFGHQHFGFQPDLFTAAKGLSSGYLPIGAVFVGKRVAEGLIAGGDFNHGFTYSGHPVCAAVAHANVAALRDEGIVQRVKDDIGPYMQKRWRETFSRFEHVDDVRGVGMVQAFTLVKNKAKRELFPDFGEIGTLCRDIFFRNNLIMRACGDHIVSAPPLVMTRAEVDEMLAVAERCLEEFEQTLKARGLA
modifications: N-terminal His tag
notes: Chromobacterium violaceum ω-transaminase, N-terminal HIS tagged
Consider B1, for which the “ω-transaminase activity: acceptance of 6-aminohexanoate as substrate (formation of L-alanine from pyruvate)” value in data set [1] is recorded as “accepted 6-aminohexanote as substrate”. Moreover, in data set [2], the “ω-transaminase activity: acceptance of adipate semialdehyde as substrate (formation of pyruvate from L-alanine)” value is on record as “accepted adipate semialdehyde as substrate”.

B2: SEQ ID NO 9: Pseudomonas aeruginosa ω-transaminase, N-terminal HIS tagged (protein, listed as Pseudomonas aeruginosa)
chain: MNARLHATSPLGDADLVRADQAHYMHGYHVFDDHRVNGSLNIAAGDGAYIYDTAGNRYLDAVGGMWCTNIGLGREEMARTVAEQTRLLAYSNPFCDMANPRAIELCRKLAELAPGDLDHVFLTTGGSTAVDTAIRLMHYYQNCRGKRAKKHVITRINAYHGSTFLGMSLGGKSADRPAEFDFLDERIHHLACPYYYRAPEGLGEAEFLDGLVDEFERKILELGADRVGAFISEPVFGSGGVIVPPAGYHRRMWELCQRYDVLYISDEVVTSFGRLGHFFASQAVFGVQPDIILTAKGLTSGYQPLGACIFSRRIWEVIAEPDKGRCFSHGFTYSGHPVACAAALKNIEIIEREGLLAHADEVGRYFEERLQSLRDLPIVGDVRGMRFMACVEFVADKASKALFPESLNIGEWVHLRAQKRGLLVRPIVHLNVMSPPLILTREQVDTVVRVLRESIEETVEDLVRAGHR
modifications: N-terminal His tag
notes: Pseudomonas aeruginosa ω-transaminase, N-terminal HIS tagged
As for B2, the “ω-transaminase activity: acceptance of adipate semialdehyde as substrate (formation of pyruvate from L-alanine)” value in data set [2] was “accepted adipate semialdehyde as substrate”.

B3: SEQ ID NO 13: Vibrio fluvialis ω-transaminase, N-terminal HIS tagged (protein, listed as Vibrio fluvialis)
chain: MNKPQSWEARAETYSLYGFTDMPSLHQRGTVVVTHGEGPYIVDVNGRRYLDANSGLWNMVAGFDHKGLIDAAKAQYERFPGYHAFFGRMSDQTVMLSEKLVEVSPFDSGRVFYTNSGSEANDTMVKMLWFLHAAEGKPQKRKILTRWNAYHGVTAVSASMTGKPYNSVFGLPLPGFVHLTCPHYWRYGEEGETEEQFVARLARELEETIQREGADTIAGFFAEPVMGAGGVIPPAKGYFQAILPILRKYDIPVISDEVICGFGRTGNTWGCVTYDFTPDAIISSKNLTAGFFPMGAVILGPELSKRLETAIEAIEEFPHGFTASGHPVGCAIALKAIDVVMNEGLAENVRRLAPRFEERLKHIAERPNIGEYRGIGFMWALEAVKDKASKTPFDGNLSVSERIANTCTDLGLICRPLGQSVVLCPPFILTEAQMDEMFDKLEKALDKVFAEVA
modifications: N-terminal His tag
notes: Vibrio fluvialis ω-transaminase, N-terminal HIS tagged
B3: the “ω-transaminase activity: acceptance of 6-aminohexanoate as substrate (formation of L-alanine from pyruvate)” value in data set [1] is given as “accepted 6-aminohexanote as substrate”. The “ω-transaminase activity: acceptance of adipate semialdehyde as substrate (formation of pyruvate from L-alanine)” value in data set [2] was “accepted adipate semialdehyde as substrate”.

B4: SEQ ID NO 7: Segniliparus rotundus carboxylate reductase, N-terminal HIS tagged (protein, listed as Segniliparus rotundus)
chain: MTQSHTQGPQASAAHSRLARRAAELLATDPQAAATLPDPEVVRQATRPGLRLAERVDAILSGYADRPALGQRSFQTVKDPITGRSSVELLPTFDTITYRELRERATAIASDLAHHPQAPAKPGDFLASIGFISVDYVAIDIAGVFAGLTAVPLQTGATLATLTAITAETAPTLFAASIEHLPTAVDAVLATPSVRRLLVFDYRAGSDEDREAVEAAKRKIADAGSSVLVDVLDEVIARGKSAPKAPLPPATDAGDDSLSLLIYTSGSTGTPKGAMYPERNVAHFWGGVWAAAFDEDAAPPVPAINITFLPLSHVASRLSLMPTLARGGLMHFVAKSDLSTLFEDLKLARPTNLFLVPRVVEMLYQHYQSELDRRGVQDGTREAEAVKDDLRTGLLGGRILTAGFGSAPLSAELAGFIESLLQIHLVDGYGSTEAGPVWRDGYLVKPPVTDYKLIDVPELGYFSTDSPHPRGELAIKTQTILPGYYKRPETTAEVFDEDGFYLTGDVVAQIGPEQFAYVDRRKNVLKLSQGEFVTLAKLEAAYSSSPLVRQLFVYGSSERSYLLAVIVPTPDALKKFGVGEAAKAALGESLQKIARDEGLQSYEVPRDFIIETDPFTVENGLLSDARKSLRPKLKEHYGERLEAMYKELADGQANELRDIRRGVQQRPTLETVRRAAAAMLGASAAEIKPDAHFTDLGGDSLSALTFSNFLHDLFEVDVPVGVIVSAANTLGSVAEHIDAQLAGGRARPTFATVHGKGSTTIKASDLTLDKFIDEQTLEAAKHLPKPADPPRTVLLTGANGWLGRFLALEWLERLAPAGGKLITIVRGKDAAQAKARLDAAYESGDPKLAGHYQDLAATTLEVLAGDFSEPRLGLDEATWNRLADEVDFISHPGALVNHVLPYNQLFGPNVAGVAEIIKLAITTRIKPVTYLSTVAVAAGVEPSALDEDGDIRTVSAERSVDEGYANGYGNSKWGGEVLLREAHDRTGLPVRVFRSDMILAHQKYTGQVNATDQFTRLVQSLLATGLAPKSFYELDAQGNRQRAHYDGIPVDFTAESITTLGGDGLEGYRSYNVFNPHRDGVGLDEFVDWLIEAGHPITRIDDYDQWLSRFETSLRGLPESKRQASVLPLLHAFARPGPAVDGSPFRNTVFRTDVQKAKIGAEHDIPHLGKALVLKYADDIKQLGLL
modifications: N-terminal His tag
notes: Segniliparus rotundus carboxylate reductase, N-terminal HIS tagged
Turning to B4, the “carboxylate reductase activity: acceptance of adipate semialdehyde as substrate (consumption of NADPH, absorbance at 340 nm)” value in data set [3] is given as “accepted adipate semialdehyde as substrate”.

B5: SEQ ID NO 10: Pseudomonas syringae ω-transaminase, N-terminal HIS tagged (protein, listed as Pseudomonas syringae)
chain: MSANNPQTLEWQALSSEHHLAPFSDYKQLKEKGPRIITRAEGVYLWDSEGNKILDGMSGLWCVAIGYGREELADAASKQMRELPYYNLFFQTAHPPVLELAKAISDIAPEGMNHVFFTGSGSEGNDTMLRMVRHYWALKGQPNKKTIISRVNGYHGSTVAGASLGGMTYMHEQGDLPIPGVVHIPQPYWFGEGGDMTPDEFGIWAAEQLEKKILELGVENVGAFIAEPIQGAGGVIVPPDSYWPKIKEILSRYDILFAADEVICGFGRTSEWFGSDFYGLRPDMMTIAKGLTSGYVPMGGLIVRDEIVAVLNEGGDFNHGFTYSGHPVAAAVALENIRILREEKIVERVRSETAPYLQKRLRELSDHPLVGEVRGVGLLGAIELVKDKTTRERYTDKGAGMICRTFCFDNGLIMRAVGDTMIIAPPLVISFAQIDELVEKARTCLDLTLAVLQG
modifications: N-terminal His tag
notes: Pseudomonas syringae ω-transaminase, N-terminal HIS tagged
With B5, the “ω-transaminase activity: acceptance of 6-aminohexanoate as substrate (formation of L-alanine from pyruvate)” value in data set [1] is reported as “accepted 6-aminohexanote as substrate”. The “ω-transaminase activity: acceptance of adipate semialdehyde as substrate (formation of pyruvate from L-alanine)” value in data set [2] is “accepted adipate semialdehyde as substrate”.
